The results in this text go back to PMC9404457 (Nature, 2022).

The target of the assay is T1, human FLAG-tagged PORCN (isoform B) (Homo sapiens, PORCN isoform B (Q9H237-2), strain).
T1 chain: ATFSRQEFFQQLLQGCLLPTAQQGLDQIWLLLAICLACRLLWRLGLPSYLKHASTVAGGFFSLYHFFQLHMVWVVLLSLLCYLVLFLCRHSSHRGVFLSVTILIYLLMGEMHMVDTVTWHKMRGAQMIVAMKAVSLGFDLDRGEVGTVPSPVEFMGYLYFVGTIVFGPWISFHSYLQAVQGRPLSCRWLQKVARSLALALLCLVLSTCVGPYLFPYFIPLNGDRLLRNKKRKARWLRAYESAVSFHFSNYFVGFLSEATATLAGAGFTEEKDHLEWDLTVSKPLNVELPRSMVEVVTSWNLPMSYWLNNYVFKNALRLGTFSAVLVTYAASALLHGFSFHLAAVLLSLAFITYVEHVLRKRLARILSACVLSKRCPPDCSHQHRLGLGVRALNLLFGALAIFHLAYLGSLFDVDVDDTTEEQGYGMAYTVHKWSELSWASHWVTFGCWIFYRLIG
Briefly: SEC.

B1: Fab^2C11 (Fab, V domains shown)
VH: EIQLQQSGAELVKPGASVKMSCKVSGYSFTGYNMNWVKQSHGKSLEWIGNINPYYVSTNYNQKFTGKATFTVDRSSSTAYMQLDSLTSEDSAVYYCARSYGSSHTFAYWGQGTLVTVSS
VL: DIHMTQSPASLSAFVGETVTITCRTSENIFSYLAWYQQKQGKSPQLLVYNAKTLTSGVPSRFSGSGSGTQFSLKINSLQPEDFGSYYCQHHYGSPYTFGGGTKLEIK
As for B1, the binding result is reported as “binds”.
